Article PMC11529724
Numbering of substitutions follows the chain as printed. Numbers in names are those of the source. Like-named read-outs stand apart in the source and are kept apart here.

Columns and labels:
[1] = molecular target: microtubules assembled from porcine brain tubulin (porcine) (UniProt P02550)
[2] = molecular target: microtubules assembled from porcine brain tubulin (porcine) (UniProt P02550); remark: listed apart in the source
[3] = molecular target: unmodified human microtubules (tubulin from tsA201 cells) (human (endogenous in tsA201)) (UniProt P68363); test: TIRF microscopy binding assay

Chain of microtubules assembled from porcine brain tubulin (porcine) (P02550 whole entry, chain 1 of 2): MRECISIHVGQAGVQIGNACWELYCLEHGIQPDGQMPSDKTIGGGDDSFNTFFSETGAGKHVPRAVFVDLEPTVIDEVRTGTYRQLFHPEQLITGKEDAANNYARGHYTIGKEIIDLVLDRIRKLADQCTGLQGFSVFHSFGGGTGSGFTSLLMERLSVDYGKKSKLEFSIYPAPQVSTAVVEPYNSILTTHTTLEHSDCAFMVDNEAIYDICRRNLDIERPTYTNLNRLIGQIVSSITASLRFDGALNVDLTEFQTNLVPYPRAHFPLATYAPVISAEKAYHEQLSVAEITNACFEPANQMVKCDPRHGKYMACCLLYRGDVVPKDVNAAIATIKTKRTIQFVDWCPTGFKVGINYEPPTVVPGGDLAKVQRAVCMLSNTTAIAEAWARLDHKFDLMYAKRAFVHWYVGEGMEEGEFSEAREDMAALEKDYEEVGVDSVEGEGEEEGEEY
Chain of microtubules assembled from porcine brain tubulin (porcine) (P02554 whole entry, chain 2 of 2, further chain): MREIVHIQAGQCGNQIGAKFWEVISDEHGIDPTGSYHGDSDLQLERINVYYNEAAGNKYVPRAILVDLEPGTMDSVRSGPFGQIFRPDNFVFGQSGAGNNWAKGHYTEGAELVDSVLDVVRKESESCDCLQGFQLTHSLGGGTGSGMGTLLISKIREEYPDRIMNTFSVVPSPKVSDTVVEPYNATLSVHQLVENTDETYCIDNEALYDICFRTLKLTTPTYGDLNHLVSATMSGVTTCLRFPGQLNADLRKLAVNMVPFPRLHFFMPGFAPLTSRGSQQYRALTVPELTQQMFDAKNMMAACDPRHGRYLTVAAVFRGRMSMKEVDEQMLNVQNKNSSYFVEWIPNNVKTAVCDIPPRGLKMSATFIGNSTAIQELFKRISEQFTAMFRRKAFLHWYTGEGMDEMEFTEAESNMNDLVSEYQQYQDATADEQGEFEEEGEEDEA

B1: TTLL6 Y479A (enzyme)
chain: GKKKRKKKRLVINLSNCRYDSVRRAAQQYGLREAGDNDDWTLYWTDYSVSLERVMEMKSYQKINHFPGMSEICRKDLLARNMSRMLKLFPKDFHFFPRTWCLPADWGDLQTYSRTRKNKTYICKPDSGCQGRGIFITRSVKEIKPGEDMICQLYISKPFIIDGFKFDLRVYVLVTSCDPLRVFVYNEGLARFATTSYSHPNLDNLDEICMHLTNYSINKHSSNFVQDAFSGSKRKLSTFNSYMKTHGYDVEQIWRGIEDVIIKTLISAHPVIKHNYHTCFPSHTLNSACFEILGFDILLDRKLKPWLLEVNHSPSFSTDSKLDKEVKDSLLYDALVLINLGNCDKKKVLEEERQRGRFLQQCPNREIRLEEVKGFQAMRLQKTEEYEKKNCGGFRLIYPGLNLEKYDKFFQDNSSLFQNTVASRARELAARQLIQELRQKQEKKVFLKKARK
glutamylation activity with taxol-stabilized MTs, normalized to WT [1]: 35 % of WT

B2: TTLL6 Leu409 to alanine (enzyme)
chain: B1 chain with L359A, A429Y
glutamylation activity with taxol-stabilized MTs, normalized to WT [2]: < 10 % of WT

B3: TTLL6 K490 to glutamate (enzyme)
chain: B1 chain with A429Y, K440E
glutamylation activity with taxol-stabilized MTs, normalized to WT [1]: < 20 % of WT

B4: Atto488-labeled TTLL6 (enzyme)
chain: B1 chain with A429Y
modifications: Atto488 on the N-terminus, through the synthetic peptide NH2-(Atto488)-… ligated with sortase
Kd [3]: 210 nM

B5: TTLL6 Val422 to alanine (enzyme)
chain: B1 chain with V372A, A429Y
glutamylation activity with taxol-stabilized MTs, normalized to WT [2]: < 10 % of WT

B6: TTLL6 F425 to alanine (enzyme)
chain: B1 chain with F375A, A429Y
glutamylation activity with taxol-stabilized MTs, increase against WT [2]: 59 % increase

B7: TTLL6 F408 to alanine (enzyme)
chain: B1 chain with F358A, A429Y
glutamylation activity with taxol-stabilized MTs, increase against WT [2]: 70 % increase
